Data: PMC8534323, “Proteinous Components of Neutrophil Extracellular Traps Are Arrested by the Cell Wall Proteins of Candida albicans during Fungal Infection, and Can Be Used in the Host Invasion” (Cells, 2021)

B1: human neutrophil elastase (HNE) (enzyme, UniProt P08246 30-267, looked up)
chain: IVGGRRARPHAWPFMVSLQLRGGHFCGATLIAPNFVMSAAHCVANVNVRAVRVVLGAHNLSRREPTRQVFAVQRIFENGYDPVNLLNDIVILQLNGSATINANVQVAQLPAQGRRLGNGVQCLAMGWGLLGRNRGIASVLQELNVTVVTSLCRRSNVCTLVRGRQAGVCFGDSGSPLVCNGLIHGIASFVRGGCASGLYPDAFAPVAQFVNWIDSIIQRSEDNPCPHPRDPDPASRTH
modifications: sulfo-SBED crosslinker in the cross-linking experiment; in flow cytometry preincubated or not with 10 µM N-(Methoxysuccinyl)-Ala-Ala-Pro-Val-chloromethyl ketone
notes: source: bought: Biocentrum (Kraków, Poland)
B2: Als3 (agglutinin-like sequence protein 3), isolated from the surface of C. albicans (natural protein)
chain: KTITGVFNSFNSLTWSNAATYNYKGPGTPTWNAVLGWSLDGTSASPGDTFTLNMPCVFKFTTSQTSVDLTAHGVKYATCQFQAGEEFMTFSTLTCTVSNTLTPSIKALGTVTLPLAFNVGGTGSSVDLEDSKCFTAGTNTVTFNDGGKKISINVDFERSNVDPKGYLTDSRVIPSLNKVSTLFVAPQCANGYTSGTMGFANTYGDVQIDCSNIHVGITKGLNDWNYPVSSESFSYTKTCSSNGIFITYKNVPAGYRPFVDAYISATDVNSYTLSYANEYTCAGGYWQRAPFTLRWTGYRNSDAGSNGIVIVATTRTVTDSTTAVTTLPFDPNRDKTKTIEILKPIPTTTITTSYVGVTTSYSTKTAPIGETATVIVDIPYHTTTTVTSKWTGTITSTTTHTNPTDSIDTVIVQVPSPNPTVTTTEYWSQSFATTTTITGPPGNTDTVLIREPPNHTVTTTEYWSESYTTTSTFTAPPGGTDSVIIKEPPNPTVTTTEYWSESYTTTTTVTAPPGGTDTVIIREPPNHTVTTTEYWSQSYTTTTTVIAPPGGTDSVIIREPPNPTVTTTEYWSQSYATTTTITAPPGETDTVLIREPPNHTVTTTEYWSQSYATTTTITAPPGETDTVLIREPPNHTVTTTEYWSQSYTTTTTVIAPPGGTDSVIIKEPPNPTVTTTEYWSQSYATTTTITAPPGETDTVLIREPPNHTVTTTEYWSQSYATTTTITAPPGETDTVLIREPPNHTVTTTEYWSQSFATTTTVTAPPGGTDTVIIREPPNHTVTTTEYWSQSFATTTTIIAPPGETDTVLIREPPNPTVTTTEYWSQSYTTATTVTAPPGGTDTVIIYDTMSSSEISSFSRPHYTNHTTLWSTTWVIETKTITETSCEGDKGCSWVSVSTRIVTIPNNIETPMVTNTVDTTTTESTLQSPSGIFSESGVSVETESSTFTTAQTNPSVPTTESEVVFTTKGNNGNGPYESPSTNVKSSMDENSEFTTSTAASTSTDIENETIATTGSVEASSPIISSSADETTTVTTTAESTSVIEQQTNNNGGGNAPSATSTSSPSTTTTANSDSVITSTTSTNQSQSQSNSDTQQTTLSQQMTSSLVSLHMLTTFDGS
notes: source: purified from C. albicans ATCC 10231 hyphae cell wall extract (β-1,3-glucanase and 2-mercaptoethanol; MonoQ, Superdex-200)
B3: enolase (Eno1) (enzyme)
chain: MSYATKIHARYVYDSRGNPTVEVDFTTDKGLFRSIVPSGASTGVHEALELRDGDKSKWLGKGVLKAVANVNDIIAPALIKAKIDVVDQAKIDEFLLSLDGTPNKSKLGANAILGVSLAAANAAAAAQGIPLYKHIANISNAKKGKFVLPVPFQNVLNGGSHAGGALAFQEFMIAPTGVSTFSEALRIGSEVYHNLKSLTKKKYGQSAGNVGDEGGVAPDIKTPKEALDLIMDAIDKAGYKGKVGIAMDVASSEFYKDGKYDLDFKNPESDPSKWLSGPQLADLYEQLISEYPIVSIEDPFAEDDWDAWVHFFERVGDKIQIVGDDLTVTNPTRIKTAIEKKAANALLLKVNQIGTLTESIQAANDSYAAGWGVMVSHRSGETEDTFIADLSVGLRSGQIKTGAPARSERLAKLNQILRIEEELGSEAIYAGKDFQKASQL
notes: source: purified from the cytosolic fraction of C. albicans cells (MonoQ, MonoS); for cross-linking: endogenous, in the cell wall protein extract of C. albicans hyphae
B4: Phosphoglycerate mutase 1 (Gpm1), recombinant (enzyme)
chain: MPKLVLVRHGQSEWNEKNLFTGWVDVRLSETGQKEAKRAGELLKEAGINVDVLHTSKLSRAIQTANIALDAADQLYVPVKRSWRLNERHYGALQGKDKAQTLEAYGQEKFQIWRRSFDVPPPKIDPKDEYSQVGDRRYADVDPAVVPLTESLALVIDRLLPYWQDEIAGDLLAGKVVLIAAHGNSLRALVKHLDNISDEDIAGLNIPTGIPLVYELDENLKPTKPSYYLDPEAAAAGAAAVAAQGQKK
B5: triosephosphate isomerase 1 (Tpi1) (enzyme, UniProt Q9P940 1-248, looked up)
chain: MARQFFVGGNFKANGTKQQITSIIDNLNKADLPKDVEVVICPPALYLGLAVEQNKQPTVAIGAQNVFDKSCGAFTGETCASQILDVGASWTLTGHSERRTIIKESDEFIAEKTKFALDTGVKVILCIGETLEERKGGVTLDVCARQLDAVSKIVSDWSNIVVAYEPVWAIGTGLAATPEDAEETHKGIRAHLAKSIGAEQAEKTRILYGGSVNGKNAKDFKDKANVDGFLVGGASLKPEFVDIIKSRL
notes: source: purified from C. albicans ATCC 10231 hyphae cell wall extract (MonoQ, Superdex-200); for cross-linking: endogenous, in that extract

What was measured:
Settings in all cases: both partners purified
[1] = target: B2; experiment: SPR
[2] = target: histone H4 (human, UniProt P62805 1-103); experiment: ELISA-like microplate ligand-binding assay
[3] = target: T1, lactotransferrin (LF) (human, UniProt P02788 20-710, NHS-fluorescein label in flow cytometry; sulfo-SBED crosslinker in the cross-linking experiment); experiment: SPR
T1 construct: also called lactoferrin; source: bought: Sigma
T1 sequence (P02788 20-710): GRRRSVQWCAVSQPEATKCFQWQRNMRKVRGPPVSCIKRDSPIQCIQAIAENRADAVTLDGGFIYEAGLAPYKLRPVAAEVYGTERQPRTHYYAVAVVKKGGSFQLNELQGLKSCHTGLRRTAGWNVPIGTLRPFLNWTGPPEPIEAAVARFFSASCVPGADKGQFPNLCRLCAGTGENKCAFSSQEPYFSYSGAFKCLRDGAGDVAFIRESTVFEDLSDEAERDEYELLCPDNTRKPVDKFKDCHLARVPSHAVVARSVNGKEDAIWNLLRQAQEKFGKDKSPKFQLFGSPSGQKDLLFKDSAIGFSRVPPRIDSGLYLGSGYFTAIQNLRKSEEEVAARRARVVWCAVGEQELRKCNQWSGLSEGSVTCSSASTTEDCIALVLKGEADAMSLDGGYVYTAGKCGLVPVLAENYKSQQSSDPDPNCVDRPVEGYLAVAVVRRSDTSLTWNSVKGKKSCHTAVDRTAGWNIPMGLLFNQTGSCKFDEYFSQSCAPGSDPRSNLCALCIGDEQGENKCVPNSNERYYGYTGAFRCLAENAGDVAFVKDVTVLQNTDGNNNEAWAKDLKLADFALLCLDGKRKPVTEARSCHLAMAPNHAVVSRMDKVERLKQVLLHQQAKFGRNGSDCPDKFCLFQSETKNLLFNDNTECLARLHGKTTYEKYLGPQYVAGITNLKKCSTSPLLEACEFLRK

| Binder | Kd [2] [nM] | further results |
| --- | --- | --- |
| B1 | – | Kd [1]: 65 ± 5.3 nM |
| B2 | 820 ± 330 | – |
| B3 | 384 ± 130 | – |
| B4 | 1900 ± 414 | – |
| B5 | – | Kd [3]: 163 ± 0.2 nM |
